# Source: patent publication US20220325265A1, “GLUCOCEREBROSIDASE MUTANTS” (Hoffmann-la Roche Inc., priority 2019, published 2022)
# Assays:
# hGCase = assay: Inhibition of hGCase using isofagomine (IFG), IC50 determination; assay type: biochemical, human; conditions: reversible inhibitor isofagomine on the named hGCase variant; 25 nM protein, 10 min pre-incubation at RT, 20 μM res-β-glc
# Method: IFG is a competitive, reversible inhibitor of hGCase, interacting with the active pocket of the enzyme (Powe et al., 2006).
# To calculate the IC50, a concentration range of 0.002-100 μM IFG was tested. IFG was prepared with a stock concentration of 1 mM in DMSO. The final enzyme concentration was 25 nM. After adding the inhibitor to the enzyme, the solution was pre-incubated for 10 min at RT before adding the substrate (20 μM) for the activity measurement.
# The evaluation and IC50 determination were done using GraphPad Prism7. hGCase activity with no inhibitor added was set to 100% relative enzyme activity. In case of evaluating the raw data via GraphPadPrism7, the applied inhibitor concentrations were first transformed to log 10×-values plottet on the x-axis. Further, the raw data measured with the activity assay in RFU was normalized to the highest activity value within one data set (equals 100%). 100% signal was defined as 10-12 μM IFG (=no inhibitor added). Data points were fitted and IC50 values were determined using log(inhibitor) vs. response-variable slope (four parameters) (GraphPadPrism7) following equation 9: […]
# To determine whether the active binding site of an enzyme is compromised or altered, IC50 values were calculated for active site inhibitor and compared. In this work, the natural occurring GCase inhibitor isofagomine (IFG) and conditurol-β-epoxide (CBE) were used. IFG is known as a reversible inhibitor, interacting with the active site of the GCase enzyme, whereas CBE is an irreversible inhibitor of GCase (Powe et al., 2006). The IC50 of an enzyme is defined as the concentration of an inhibitor, where the response, in this case the enzyme activity, is reduced by half (Kalliokoski et al., 2013). Both assays were conducted as described in section 2.5.6. The inhibitor profiles of M53T/P55T using IFG and CBE as well as the IC50 profiles of all residual mutants combined are shown in FIG. 4.
# The raw data was plotted by transforming the applied IFG/CBE concentration to a logarithmic scale (x-axis, FIG. 4) and by normalizing the activity signal with highest signal of each data set to 100% (defined with apparent inhibitor concentration of 10-12 μM, equal to no inhibitor). IC50 values were calculated using GraphPad Prism7 following equation 9.
# [1] = pH screening of hGCase variants (activity assay, pH 3.5-8); assay type: biochemical; conditions: for relative activity: highest activity = 100%
# Method: (§1) For all further GCase characterization experiments including the activity assay, 20 μM substrate concentration, 30-40 min incubation time and protein concentrations ranging from 25-100 nM were set as final assay settings to ensure measurements in the linear range. The overall DMSO concentration within the assay was kept at 0.5% (v/v) or even below, since DMSO influences the fluorescent signal with higher concentrations (experimentally tested, data not shown; confirmed by (Urban et al., 2008). Therefore, GCase activity buffer+1% (v/v) DMSO was also used for dilutions (table 2.9). The plate reader SpectraMax i3 (Molecular Devices) including the analysis software SoftMax Pro 6.4 was used for all activity measurements within this work. The program settings were kept the same for all activity runs: kinetic run, measurement temperature: 37° C., PMT Gain: high; flashes per read: 6; read height: 0.73305 mm from plate.
# A pH optimum screening was done to observe a possible shift in the pH spectrum of the new variants due to structural modification of the enzymes. Therefore, three different buffers were used, covering a pH range of pH 3.5 to 8. For the screening, buffer substances were chosen after the use for purification buffers. Therefore, following buffers were prepared: Citric acid buffer (20 mM, pH 3.5-5), MES buffer (20 mM, pH 6-6.5) and HEPES buffer (20 mM, pH 7-8). The final protein concentration used for this assay was 75 nM. The activity assay was done as described in section 2.3.5 (table 2.11), merely the buffer was varied.
# A possible pH optimum shift due to structural modifications should be examined. Since the GCase enzyme originally occurs within the lysosome, its natural pH optimum is reported to be between pH 4.7-6.0 (Lieberman et al., 2007; Liou et al., 2006; Tan et al., 2014). This could change when including slight modifications in the structure of the molecule. Thus, the mutants were tested within a pH range of 3.5 to 8 for enzymatic activity.
# [2] = Heat inactivation at 55° C., residual GCase activity of purified protein; assay type: physicochemical; conditions: for residual GCase activity after heat inactivation: 55° C. waterbath, 50 nM protein, initial activity = 100%
# Method: as §1
# Another approach to test the mutants for thermal stability is the irreversible heat inactivation at 55° C. (Futami et al., 2017; Zale & Klibanov, 1986). As initial screening to select for most promising candidates, this thermal stability approach was chosen (section 3.1.1). For this, supernatant samples of each construct were taken from the 30 ml S2 cell cultures, respectively (section 2.2). The protein concentration was not adjusted. The samples were incubated for 40 min in total at 55° C. (PCR Cycler Mastercycler gradient, Eppendorf) using PCR plates (FrameStar®96 well skirted PCR plate, 4titude Ltd.). Samples were taken after 5, 7, 10, 15, 20, 30 and 40 min for residual activity measurements. The activity assay was performed as described in section 2.3.5. The initial activity of each mutant was set to 100% before heating. Residual activities were calculated in regard to the initial activity. Data points were fitted using the one phase decay fit by GraphPad Prism7 following equation 3: […]
# For the heat inactivation experiment of purified protein (see section 3.3.3), hGCase protein samples were prepared with a final concentration of 50 nM, diluted in hGCase activity buffer, pH 6.0 (table 2.9) and incubated for 5 and 10 minutes in the waterbath (Julabo 5A, Julabo) at 55° C.
# The second approach was aimed to test residual GCase activity after thermal inactivation at a fixed temperature. With this additional approach, the focus was set on activity-based changes with increased incubation time (Futami et al., 2017; Zale & Klibanov, 1986). Here, samples were incubated for 5 and 10 minutes in the waterbath at 55° C. Residual GCase activities were measured with the initial activity set to 100% (before heating). FIG. 2 depicts calculated residual activities for tested mutants after incubation.
# [3] = pH 3.5, 20 mM citric acid buffer
IC50 (hGCase),"activity at pH 8 ([1]; pH 8, 20 mM HEPES buffer)","loss of activity [1, 3]",Molecule,"relative activity [1, 3]","pH optimum ([1]; pH range 3.5-8, 75 nM protein, 100% relative activity)",residual GCase activity after heat inactivation ([2]; 10 min incubation),residual GCase activity after heat inactivation ([2]; 5 min incubation),"residual activities after 5 and 10 min of incubation (in words) ([2]; 55° C., compared to R495HS2)"
22 ± 4 nM,–,–,"L34Q: recombinant human β-glucocerebrosidase variant R495H/L34Q, S2 cells; Seq. Id. No. 6 (protein, listed as Homo sapiens, recombinant human β-glucocerebrosidase variant R495H/L34Q, S2 cells; Id; No. 6) ARPCIPKSFGYSSVVCVCNATYCDSFDPPTFPAQGTFSRYESTRSGRRMELSMGPIQANHTGTGLLLTLQPEQKFQKVKGFGGAMTDAAALNILALSPPAQNLLLKSYFSEEGIGYNIIRVPMASCDFSIRTYTYADTPDDFQLHNFSLPEEDTKLKIPLIHRALQLAQRPVSLLASPWTSPTWLKTNGAVNGKGSLKGQPGDIYHQTWARYFVKFLDAYAEHKLQFWAVTAENEPSAGLLSGYPFQCLGFTPEHQRDFIARDLGPTLANSTHHNVRLLMLDDQRLLLPHWAKVVLTDPEAAKYVHGIAVHWYLDFLAPAKATLGETHRLFPNTMLFASEACVGSKFWEQSVRLGSWDRGMQYSHSIITNLLYHVVGWTDWNLALNPEGGPNWVRNFVDSPIIVDITKDTFYKQPMFYHLGHFSKFIPEGSQRVGLVASQKNDLDAVALMHPDGSAVVVVLNRSSKDVPLTIKDPAVGFLETISPGYSIHTYLWHRQ",~80%,6 pH,~27%,–,–
26 ± 3 nM,completely inactive,–,"I5N: recombinant human β-glucocerebrosidase variant R495H/I5N, S2 cells; Seq. Id. No. 4 (protein, listed as Homo sapiens, recombinant human β-glucocerebrosidase variant R495H/I5N, S2 cells; Id; No. 4) ARPCNPKSFGYSSVVCVCNATYCDSFDPPTFPALGTFSRYESTRSGRRMELSMGPIQANHTGTGLLLTLQPEQKFQKVKGFGGAMTDAAALNILALSPPAQNLLLKSYFSEEGIGYNIIRVPMASCDFSIRTYTYADTPDDFQLHNFSLPEEDTKLKIPLIHRALQLAQRPVSLLASPWTSPTWLKTNGAVNGKGSLKGQPGDIYHQTWARYFVKFLDAYAEHKLQFWAVTAENEPSAGLLSGYPFQCLGFTPEHQRDFIARDLGPTLANSTHHNVRLLMLDDQRLLLPHWAKVVLTDPEAAKYVHGIAVHWYLDFLAPAKATLGETHRLFPNTMLFASEACVGSKFWEQSVRLGSWDRGMQYSHSIITNLLYHVVGWTDWNLALNPEGGPNWVRNFVDSPIIVDITKDTFYKQPMFYHLGHFSKFIPEGSQRVGLVASQKNDLDAVALMHPDGSAVVVVLNRSSKDVPLTIKDPAVGFLETISPGYSIHTYLWHRQ",75%,–,16%,31%,–
27 ± 6 nM,–,40%,"imiglucerase (protein, UniProt P04062 40-536, looked up, variant R495H, imiglucerase; CHO-produced, Commercially available Cerezyme (imiglucerase, Genzyme), hGCase R495H produced in CHO cells) Lysosomal acid …: ARPCIPKSFGYSSVVCVCNATYCDSFDPPTFPALGTFSRYESTRSGRRMELSMGPIQANHTGTGLLLTLQPEQKFQKVKGFGGAMTDAAALNILALSPPAQNLLLKSYFSEEGIGYNIIRVPMASCDFSIRTYTYADTPDDFQLHNFSLPEEDTKLKIPLIHRALQLAQRPVSLLASPWTSPTWLKTNGAVNGKGSLKGQPGDIYHQTWARYFVKFLDAYAEHKLQFWAVTAENEPSAGLLSGYPFQCLGFTPEHQRDFIARDLGPTLANSTHHNVRLLMLDDQRLLLPHWAKVVLTDPEAAKYVHGIAVHWYLDFLAPAKATLGETHRLFPNTMLFASEACVGSKFWEQSVRLGSWDRGMQYSHSIITNLLYHVVGWTDWNLALNPEGGPNWVRNFVDSPIIVDITKDTFYKQPMFYHLGHFSKFIPEGSQRVGLVASQKNDLDAVALMHPDGSAVVVVLNRSSKDVPLTIKDPAVGFLETISPGYSIHTYLWHRQ",–,–,–,–,rapidly lose its initial activity but retained residual activity with further incubation
